Experimental data as given in US20210275545A1 (YEDA RESEARCH AND DEVELOPMENT, published 2021).

T1: GR NTD+DBD-Gluc2 (NTD and DBD of GR fused to Gluc2) (human, UniProt P04150 1-486)
T1 construct: domain: NTD+DBD;range 94-169; not shown: Gaussia luciferase (Gluc), carboxyl-terminal fragment Gluc2, amino acids 94-169
T1 sequence (looked up): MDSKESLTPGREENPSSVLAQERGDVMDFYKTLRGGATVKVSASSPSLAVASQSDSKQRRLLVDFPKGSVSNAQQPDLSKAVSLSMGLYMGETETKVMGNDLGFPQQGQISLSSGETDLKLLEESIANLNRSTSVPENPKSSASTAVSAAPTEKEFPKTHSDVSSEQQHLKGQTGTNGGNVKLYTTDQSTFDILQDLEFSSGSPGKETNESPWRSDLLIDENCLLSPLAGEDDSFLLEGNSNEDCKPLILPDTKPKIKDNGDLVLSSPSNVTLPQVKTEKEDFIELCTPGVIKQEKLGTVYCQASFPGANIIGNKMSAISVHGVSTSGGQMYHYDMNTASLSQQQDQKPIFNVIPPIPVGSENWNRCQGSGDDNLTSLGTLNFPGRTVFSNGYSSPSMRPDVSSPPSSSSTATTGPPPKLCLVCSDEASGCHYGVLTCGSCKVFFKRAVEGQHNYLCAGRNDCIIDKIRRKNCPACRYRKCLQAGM

T2: glucocorticoid receptor (GR), untagged (human, UniProt P04150 1-777)
T2 sequence (looked up): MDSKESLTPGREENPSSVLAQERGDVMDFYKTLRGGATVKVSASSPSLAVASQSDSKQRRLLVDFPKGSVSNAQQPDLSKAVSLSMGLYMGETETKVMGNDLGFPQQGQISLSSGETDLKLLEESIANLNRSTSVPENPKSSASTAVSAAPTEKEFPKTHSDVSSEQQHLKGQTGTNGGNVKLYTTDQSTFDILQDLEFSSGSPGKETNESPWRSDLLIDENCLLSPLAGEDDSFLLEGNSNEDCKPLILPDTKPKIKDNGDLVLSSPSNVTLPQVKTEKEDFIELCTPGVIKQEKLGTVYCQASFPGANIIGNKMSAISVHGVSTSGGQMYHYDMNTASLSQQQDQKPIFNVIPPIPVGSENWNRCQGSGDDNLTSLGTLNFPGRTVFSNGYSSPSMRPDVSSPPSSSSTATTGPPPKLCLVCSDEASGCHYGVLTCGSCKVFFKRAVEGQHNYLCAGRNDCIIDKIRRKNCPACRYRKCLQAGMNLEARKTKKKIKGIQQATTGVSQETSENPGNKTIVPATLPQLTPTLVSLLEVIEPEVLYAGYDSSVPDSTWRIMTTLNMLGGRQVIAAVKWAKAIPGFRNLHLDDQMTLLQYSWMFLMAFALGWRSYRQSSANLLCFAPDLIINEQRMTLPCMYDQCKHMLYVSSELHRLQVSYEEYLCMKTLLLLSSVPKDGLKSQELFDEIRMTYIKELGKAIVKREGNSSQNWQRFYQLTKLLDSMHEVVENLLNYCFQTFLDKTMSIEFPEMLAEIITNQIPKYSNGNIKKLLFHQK

B1: ERα-Gluc2 (estrogen receptor alpha fused to Gluc2) (receptor, UniProt P03372 1-595, looked up)
chain: MTMTLHTKASGMALLHQIQGNELEPLNRPQLKIPLERPLGEVYLDSSKPAVYNYPEGAAYEFNAAAAANAQVYGQTGLPYGPGSEAAAFGSNGLGGFPPLNSVSPSPLMLLHPPPQLSPFLQPHGQQVPYYLENEPSGYTVREAGPPAFYRPNSDNRRQGGRERLASTNDKGSMAMESAKETRYCAVCNDYASGYHYGVWSCEGCKAFFKRSIQGHNDYMCPATNQCTIDKNRRKSCQACRLRKCYEVGMMKGGIRKDRRGGRMLKHKRQRDDGEGRGEVGSAGDMRAANLWPSPLMIKRSKKNSLALSLTADQMVSALLDAEPPILYSEYDPTRPFSEASMMGLLTNLADRELVHMINWAKRVPGFVDLTLHDQVHLLECAWLEILMIGLVWRSMEHPGKLLFAPNLLLDRNQGKCVEGMVEIFDMLLATSSRFRMMNLQGEEFVCLKSIILLNSGVYTFLSSTLKSLEEKDHIHRVLDKITDTLIHLMAKAGLTLQQQHQRLAQLLLILSHIRHMSNKGMEHLYSMKCKNVVPLYDLLLEMLDAHRLHAPTSRGGASVEETDQSHLATAGSTSSHSLQKYYITGEAEGFPATV
notes: not shown: Gaussia luciferase (Gluc), carboxyl-terminal fragment Gluc2, amino acids 94-169
B2: GR-Gluc2 (full-length glucocorticoid receptor fused at its carboxyl terminus to Gluc2) (receptor, UniProt P04150 1-777, looked up)
chain: T2 sequence (looked up)
notes: domain: full length;range 94-169; Expressed in HEK-293/HEK-293T cells by transfection; also called Gluc2-GR; not shown: Gaussia luciferase (Gluc), carboxyl-terminal fragment Gluc2, amino acids 94-169
B3: FLI1, untagged (other, UniProt Q01543 1-452, looked up)
chain: MDGTIKEALSVVSDDQSLFDSAYGAAAHLPKADMTASGSPDYGQPHKINPLPPQQEWINQPVRVNVKREYDHMNGSRESPVDCSVSKCSKLVGGGESNPMNYNSYMDEKNGPPPPNMTTNERRVIVPADPTLWTQEHVRQWLEWAIKEYSLMEIDTSFFQNMDGKELCKMNKEDFLRATTLYNTEVLLSHLSYLRESSLLAYNTTSHTDQSSRLSVKEDPSYDSVRRGAWGNNMNSGLNKSPPLGGAQTISKNTEQRPQPDPYQILGPTSSRLANPGSGQIQLWQFLLELLSDSANASCITWEGTNGEFKMTDPDEVARRWGERKSKPNMNYDKLSRALRYYYDKNIMTKVHGKRYAYKFDFHGIAQALQPHPTESSMYKYPSDISYMPSYHAHQQKVNFVPPHPSSMPVTSSSFFGAASQYWTSPTGGIYPNPNVPRHPNTHVPSHLGSYY
notes: Stands for endogenous FLI1 (HEK-293T, A673) in co-immunoprecipitation and PLA, and for FLI1 from an expression vector in the reporter assays; also called endogenous FLI1
B4: GR NTD-Gluc2 (NTD of GR fused to Gluc2) (other, UniProt P04150 1-420, looked up, not shown: large carriers)
chain: MDSKESLTPGREENPSSVLAQERGDVMDFYKTLRGGATVKVSASSPSLAVASQSDSKQRRLLVDFPKGSVSNAQQPDLSKAVSLSMGLYMGETETKVMGNDLGFPQQGQISLSSGETDLKLLEESIANLNRSTSVPENPKSSASTAVSAAPTEKEFPKTHSDVSSEQQHLKGQTGTNGGNVKLYTTDQSTFDILQDLEFSSGSPGKETNESPWRSDLLIDENCLLSPLAGEDDSFLLEGNSNEDCKPLILPDTKPKIKDNGDLVLSSPSNVTLPQVKTEKEDFIELCTPGVIKQEKLGTVYCQASFPGANIIGNKMSAISVHGVSTSGGQMYHYDMNTASLSQQQDQKPIFNVIPPIPVGSENWNRCQGSGDDNLTSLGTLNFPGRTVFSNGYSSPSMRPDVSSPPSSSSTATTGPPPKL
notes: domain: NTD;range 94-169

What was measured:
Gluc1-PU.1 [1] = target: T3, Gluc1-PU.1 (UniProt P17947-2 1-271); assay: PCA in HEK-293T cells, estradiol 10 nM 60 min (FIG. 8C)
T3 construct: not shown: Gaussia luciferase (Gluc), amino-terminal fragment Gluc1, amino acids 1-93
Experimental: (A) HEK-293T cells (6×10³) were seeded in 96-well plates. […] (B and C) HEK-293T cells (6×10³) were seeded in 96-well plates. […] Cells were then lysed and luminescence was determined.

Gluc1-PU.1 [2] = target: T3, Gluc1-PU.1; assay: PCA (split Gaussia luciferase) in HEK-293 cells, DEX 1.0 µM 60 min (FIG. 1B)
Source text: EB, empty beads; C, solvent control. Images shown are representative of three biological replicates.
The resulting luminescence was normalized to the signal associated with cells treated with vehicle only.

[3] = target: T1, GR NTD+DBD-Gluc2 (NTD and DBD of GR …); assay: co-immunoprecipitation with anti-Gluc antibody, immunoblot for endogenous FLI1, HEK-293 cells (FIG. 3D)
Experimental: (§1) HEK-293T cells (6×10³) were seeded in each well of 96-well plates. […] Cells were lysed after 24 hours and processed for co-immunoprecipitation assays, in which the Gluc protein was immunoprecipitated using a specific antibody. […] Blots are representative of three or more biological replicates. […] Similarly, the input of recombinant proteins is shown in the middle panels of C and D. Both molecular weights and relative quantities of individual Gluc fusion proteins are shown by means of immunoblotting with an antibody to Gluc. Individual fusion proteins are identified by numbers and their molecular weights are calculated below each panel.

[4] = target: T2, glucocorticoid receptor (GR), untagged; assay: cell-based or functional assay
FLI1, untagged = target: B3; assay: co-immunoprecipitation with anti-Gluc antibody, immunoblot for endogenous FLI1, HEK-293 cells (FIG. 3D)
Experimental: as §1

Binder: B1
binding result (Gluc1-PU.1 [1]): no binding

Binder: B2
binding result (Gluc1-PU.1 [2]): binds

Binder: B3
binding result [3]: no binding
GRE activity, luciferase reporter (FIG. 4D) [4]: 17 fold
GRE activity, luciferase reporter, endogenous GR with DEX (FIG. 4E) [4]: ~2 fold

Binder: B4
binding result (FLI1, untagged): no binding
